Laboratory results published in patent US20210395372A1.

Legend:
[1] = target: human Met-Fc chimera (human) (UniProt P08581); test: ELISA
[2] = target: human Met receptor on cells (human) (UniProt P08581); test: cell-based or functional assay
Sequence of human Met receptor on cells (human) (P08581 25-1390): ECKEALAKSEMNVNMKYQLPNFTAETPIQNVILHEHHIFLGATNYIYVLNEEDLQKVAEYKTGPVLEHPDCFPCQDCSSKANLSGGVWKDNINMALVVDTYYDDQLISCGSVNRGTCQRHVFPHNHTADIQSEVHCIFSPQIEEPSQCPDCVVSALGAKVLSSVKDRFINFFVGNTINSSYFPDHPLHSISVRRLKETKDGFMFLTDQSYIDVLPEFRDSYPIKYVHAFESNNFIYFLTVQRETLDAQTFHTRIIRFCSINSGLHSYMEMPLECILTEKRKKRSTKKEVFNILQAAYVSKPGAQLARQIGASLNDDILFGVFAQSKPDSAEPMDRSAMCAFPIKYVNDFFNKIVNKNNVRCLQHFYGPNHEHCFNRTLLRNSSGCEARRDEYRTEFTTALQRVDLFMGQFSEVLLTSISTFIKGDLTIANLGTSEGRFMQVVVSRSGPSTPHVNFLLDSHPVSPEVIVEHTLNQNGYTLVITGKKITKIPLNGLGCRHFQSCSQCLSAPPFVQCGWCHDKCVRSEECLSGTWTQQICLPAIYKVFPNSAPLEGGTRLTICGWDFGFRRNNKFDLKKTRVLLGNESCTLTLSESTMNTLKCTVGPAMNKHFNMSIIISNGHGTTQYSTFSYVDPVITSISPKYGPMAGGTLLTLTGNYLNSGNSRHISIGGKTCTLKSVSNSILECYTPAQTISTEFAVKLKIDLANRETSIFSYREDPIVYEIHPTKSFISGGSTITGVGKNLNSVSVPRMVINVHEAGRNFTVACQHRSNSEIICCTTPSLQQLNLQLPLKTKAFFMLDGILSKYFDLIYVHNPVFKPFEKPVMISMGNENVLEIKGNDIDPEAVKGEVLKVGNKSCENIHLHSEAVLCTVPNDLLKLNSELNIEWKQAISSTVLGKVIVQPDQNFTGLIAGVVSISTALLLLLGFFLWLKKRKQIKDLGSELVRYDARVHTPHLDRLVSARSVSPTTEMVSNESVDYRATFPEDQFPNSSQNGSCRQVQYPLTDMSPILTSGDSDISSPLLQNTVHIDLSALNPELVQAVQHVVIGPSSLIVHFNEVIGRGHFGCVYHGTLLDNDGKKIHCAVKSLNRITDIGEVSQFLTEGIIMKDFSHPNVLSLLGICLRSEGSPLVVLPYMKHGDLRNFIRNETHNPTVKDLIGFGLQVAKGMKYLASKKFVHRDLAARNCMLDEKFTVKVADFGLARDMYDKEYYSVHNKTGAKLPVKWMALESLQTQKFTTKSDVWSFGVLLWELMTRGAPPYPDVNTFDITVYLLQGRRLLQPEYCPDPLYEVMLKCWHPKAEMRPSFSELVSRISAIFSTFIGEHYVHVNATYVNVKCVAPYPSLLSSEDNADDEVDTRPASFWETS

Sequence of human Met-Fc chimera (human) (P08581 25-932, change not shown): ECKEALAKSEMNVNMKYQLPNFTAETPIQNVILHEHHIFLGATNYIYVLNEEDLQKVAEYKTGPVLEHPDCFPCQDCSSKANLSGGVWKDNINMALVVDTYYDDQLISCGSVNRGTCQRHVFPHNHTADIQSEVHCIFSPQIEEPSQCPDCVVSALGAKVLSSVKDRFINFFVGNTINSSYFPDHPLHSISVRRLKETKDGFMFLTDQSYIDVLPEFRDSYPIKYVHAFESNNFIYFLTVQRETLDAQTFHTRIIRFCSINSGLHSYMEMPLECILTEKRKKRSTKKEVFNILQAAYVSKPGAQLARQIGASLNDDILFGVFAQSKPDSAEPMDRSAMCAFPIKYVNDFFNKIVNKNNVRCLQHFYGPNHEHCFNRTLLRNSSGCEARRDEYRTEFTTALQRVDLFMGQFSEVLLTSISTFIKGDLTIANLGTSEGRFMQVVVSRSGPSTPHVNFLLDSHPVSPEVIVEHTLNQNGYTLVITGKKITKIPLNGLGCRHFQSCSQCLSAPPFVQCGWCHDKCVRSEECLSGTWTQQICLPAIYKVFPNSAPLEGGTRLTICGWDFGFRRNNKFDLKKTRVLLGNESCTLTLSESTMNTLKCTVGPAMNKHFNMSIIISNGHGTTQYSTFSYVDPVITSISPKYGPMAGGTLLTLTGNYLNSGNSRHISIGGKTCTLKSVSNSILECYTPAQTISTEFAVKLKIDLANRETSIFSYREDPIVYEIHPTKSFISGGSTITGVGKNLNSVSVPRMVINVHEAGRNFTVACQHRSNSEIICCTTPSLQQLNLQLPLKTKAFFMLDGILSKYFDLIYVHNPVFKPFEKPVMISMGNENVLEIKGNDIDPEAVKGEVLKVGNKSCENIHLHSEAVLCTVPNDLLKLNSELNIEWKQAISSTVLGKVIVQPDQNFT

For chOA-DN30, the Kd [1] was 0.319 nM.

For chOA-DN30 (antibody), the percentage of GTL-16 cells in S phase (EdU), 1 uM antibody [2] was 15% and the reduction of proliferating GTL-16 cells versus control (EdU), 1 uM antibody [2] was 52%.
